In US20150322156A1 (TOHOKU UNIVERSITY, published 2015):
Residue numbers refer to the chain shown, from its start.

Target: human EGF receptor 1 (EGFR) as used in the SPR rate analysis (UniProt P00533 25-645, limits assumed)
Test: SPR rate analysis of scFv

B1: h528scFv, single-chain antibody of the humanized anti-human EGF receptor 1 (Her1) antibody 528 before lysine substitution (scFv)
scFv: QVQLVQSGAEVKKPGASVKVSCKASGYTFTSYWMHWVRQAPGQGLEWMGNIYPGSGGTNYAEKFKNRVTMTRDTSISTAYMELSRLRSDDTAVYYCARSGGPYFFDYWGQGTLVTVSSAGGGGSDIVMTQSPLSLPVTPGEPASISCRSSQNIVHNNGITYLEWYLQKPGQSPQLLIYKVSDRFSGVPDRFSGSGSGTDFTLKISRVEAEDVGVYYCFQGSHIPPTFGQGTKVEIKRAAAAEQKLISEEDLNLGGGMRGSHHHHHH
notes: also called PC
In the case of B1, the Ka is reported as 2.61e+07 M⁻¹, the koff is reported as 0.00542 s⁻¹ and the kon is reported as 141000 M⁻¹ s⁻¹.

B2: lysine-substituted single-chain antibody "OK" containing VH0K and VL0K (all lysine residues replaced) (scFv)
scFv: QVQLVQSGAEVAEPGASVQVSCAASGYTFTSYWMHWVRQAPGQGLEWMGNIYPGSGGTNYAEEFQNRVTMTRDTSISTAYMELSRLRSDDTAVYYCARSGGPYFFDYWGQGTLVTVSSGGGGSGGGGSGGGGSDIVMTQSPLSLPVTPGEPASISCRSSQNIVHNNGITYLEWYLQRPGQSPQLLIYQVSDRFSGVPDRFSGSGSGTDFTLTISRVEAEDVGVYYCFQGSHIPPTFGQGTEVEIERHHHHHH
notes: Expressed in E. coli; also called VH0K VL0K
For B2, the Ka was 7.32e+06 M⁻¹, the koff was 0.00824 s⁻¹ and the kon was 60300 M⁻¹ s⁻¹.

B3: lysine-substituted single-chain antibody "LK" containing VH0K and VL1K (L108 re-replaced with lysine) (scFv)
scFv: B2 scFv with E241K
notes: Expressed in E. coli; also called VH0K VL1K
With B3 the Ka was 8.34e+06 M⁻¹, the koff was 0.00853 s⁻¹ and the kon was 71100 M⁻¹ s⁻¹.

B4: lysine-substituted single-chain antibody "HK" containing VH1K and VL0K (H19 re-replaced with lysine) (scFv)
scFv: B2 scFv with Q19K
notes: Expressed in E. coli; also called VH1K VL0K
B4 was tested, and the Ka was 8.82e+06 M⁻¹, the koff was 0.00805 s⁻¹ and the kon was 71000 M⁻¹ s⁻¹.
